The target of assay [1] is CRF receptor 2 (CRF-R2) (mouse) (UniProt Q60748). Description: cell-based or functional assay.
For assay [2], the target named is CRF receptor 1 (CRF-R1) (mouse) (UniProt P35347). Put plainly: cell-based or functional assay.
Sequence of CRF receptor 1 (CRF-R1) (mouse) (P35347 24-415): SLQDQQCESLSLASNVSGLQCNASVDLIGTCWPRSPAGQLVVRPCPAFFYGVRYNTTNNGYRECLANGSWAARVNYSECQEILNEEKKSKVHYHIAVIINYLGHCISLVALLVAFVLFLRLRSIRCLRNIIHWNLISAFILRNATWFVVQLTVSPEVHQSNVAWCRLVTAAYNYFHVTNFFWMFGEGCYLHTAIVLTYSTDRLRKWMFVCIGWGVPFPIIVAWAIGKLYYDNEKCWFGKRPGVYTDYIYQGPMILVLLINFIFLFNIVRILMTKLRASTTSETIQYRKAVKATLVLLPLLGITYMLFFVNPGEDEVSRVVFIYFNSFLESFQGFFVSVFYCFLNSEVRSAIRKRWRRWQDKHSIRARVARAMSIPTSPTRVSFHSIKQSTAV

Sequence of CRF receptor 2 (CRF-R2) (mouse) (Q60748 20-411): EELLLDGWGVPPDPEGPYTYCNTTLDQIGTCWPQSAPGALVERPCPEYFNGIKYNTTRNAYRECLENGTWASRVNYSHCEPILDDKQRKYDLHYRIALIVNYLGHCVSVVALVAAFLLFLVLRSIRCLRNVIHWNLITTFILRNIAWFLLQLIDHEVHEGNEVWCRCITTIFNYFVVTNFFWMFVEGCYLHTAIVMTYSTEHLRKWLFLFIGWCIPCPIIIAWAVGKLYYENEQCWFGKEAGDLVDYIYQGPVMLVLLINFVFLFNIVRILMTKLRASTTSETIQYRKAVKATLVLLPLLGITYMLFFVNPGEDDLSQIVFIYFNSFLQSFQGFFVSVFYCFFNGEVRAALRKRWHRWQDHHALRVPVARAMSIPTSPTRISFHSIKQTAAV

As for “human/rat corticotrophin-releasing factor (CRF) (from UniProt P06850 154-194) (peptide)”, the NMDAR-mediated EPSCs (% of baseline) in VTA dopamine neurons, CRF 100 nM, 25 mins after CRF onset in assay [1] is 128%. In assay [2], the hippocampal CA1 field potentials (% of baseline), CRF 1 µM plus 3 µM CP-154,526 (selective CRF-R1 antagonist, small molecule) is 82.9% and the hippocampal CA1 field potentials (% of baseline), CRF 1 µM, 15 mins after CRF onset stood at 143%.

Consider Antisauvagine-30 (peptide), for which, in assay [1], the NMDAR EPSCs (% of baseline) 15 mins after CRF onset in the presence of 30 nM Antisauvagine-30 was determined as 114%.

These data come from patent US20060024661A1, “Modulation of CRF potentiation of NMDA receptor currents via CRF receptor 2” (The Regents of the University of California, priority 2003, published 2006).
